Laboratory results taken from paper doi:10.1101/2020.04.01.839274 (bioRxiv, 2020).

Experiments:
[1] = target: Myc-tagged mouse EXOSC5 p.Leu206His (mouse, UniProt Q9CRA8 1-235, L206H); assay: co-IP
[2] = target: Myc-tagged mouse EXOSC5 p.Thr114Ile (mouse, UniProt Q9CRA8 1-235, T114I); assay: co-IP
Sequence of Myc-tagged mouse EXOSC5 p.Thr114Ile (Q9CRA8 whole entry T114I): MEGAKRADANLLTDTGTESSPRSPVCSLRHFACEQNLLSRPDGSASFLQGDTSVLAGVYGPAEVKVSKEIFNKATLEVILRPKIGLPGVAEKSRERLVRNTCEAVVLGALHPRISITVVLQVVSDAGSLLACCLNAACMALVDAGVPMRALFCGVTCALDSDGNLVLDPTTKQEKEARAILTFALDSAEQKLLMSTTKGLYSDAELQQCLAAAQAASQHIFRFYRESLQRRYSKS

Sequence of Myc-tagged mouse EXOSC5 p.Leu206His (Q9CRA8 whole entry L206H): as the sequence (Q9CRA8 whole entry T114I) above, with I114T, L206H counted along it

Row | Binder | % EXOSC subunit bound relative to wild-type EXOSC5 [1] [%] | % EXOSC subunit bound relative to wild-type EXOSC5 [2] [%]
1 | endogenous EXOSC3 (natural protein, mouse (endogenous in Neuro-2a), UniProt Q7TQK4 1-274, looked up) MAEVLSAGPESVAGCRARAVHKVLNQVVLPGEELVLPDHEDVDGLGGAGEQPLRLNAGARPRLRVVCGPGLRRCGDRLLVTKCGRLRHKEPSGGGGGVYWVDSQQKRYVPVKGDHVIGIVIAKSGDIFKVDVGGSEPASLSYLAFEGATKRNRPNVQVGDLIYGQCVVANKDMEPEMVCIDSCGRANGMGVIGQDGLLFKVTLGLIRKLLAPDCEIVQELGKLYPLEIVFGMNGRIWVKAKTIQQTLILANVLEACEHMTTEQRKQIFARLAES | 9 | 28
2 | endogenous EXOSC9 (natural protein, mouse (endogenous in Neuro-2a), UniProt Q9JHI7 1-438, looked up) MKETPLSNCERRFLLRAIEEKKRLDGRQTYDYRNIRISFGTDYGCCIVELGKTRVLGQVSCELVSPKLNRATEGILFFNLELSQMAAPAFEPGRQSDLLVKLNRLLERCLRNSKCIDTESLCVVAGEKVWQIRVDLHLLNHDGNIIDAASIAAIVALCHFRRPDVSVQGEEVTLYTPEERDPVPLSIHHMPICVSFAFFQQGTYLLVDPNEREERVMDGLLVIAMNKHREICTIQSSGGIMLLKDQVFRCSKIAGVKVAEITELIQKALENDQRVRKEGGKFGFAESIANQRITAFKMETAPIDTSNIEERAEEIIAEAEPPPEVVSQPVLWTPGTAQIGDGIENSWGDLEDSEKEEEEEEGGIDEAVILDDTKMDTGEVSDIGSQGAPIVLSDSEEEEMIILEPEKNPKKIRAQTSANQKAPSKGQGKRKKKKRTAN | 16 | 24
3 | endogenous EXOSC10 (natural protein, mouse (endogenous in Neuro-2a), UniProt P56960 1-887, looked up) MAPPSPREHQSAPATSATKPDAEMVLPGFPDADSFVKFALGSVVAVTKASGGLPQFGDEYDFYRSFPAFQAFCETQGDRLLQCMSRVMQYHGCRSNIKDRSKVTELEDKFDLLVDTNDVILERVGMLLDEASGVNKHQQPVLPAGLQVPKTIVSSWNRKAGEYGKKAKSETFRLLHAKNIVRPQLRFREKIDNSNTPFLPKIFVKPNARKPLPLALSKERRERPQDRPEDLDVPPALADFIHQQRTQQVEQDMFAHPYQYELDHFTPPQSVLQRPKPQLYRAVGETPCHLVSSLDELVELNEKLLGCQEFAVDLEHHSYRSFLGLTCLMQISTRTEDFIVDTLELRSDMYILNESLTDPAIVKVFHGADSDIEWLQKDFGLYVVNMFDTHQAARLLNLARHSLDHLLRLYCGVESNKQYQLADWRIRPLPEEMLSYARDDTHYLLYIYDRMRLELWERGNHQPVQLQVVWQRSRDICLKKFVKPIFTDESYLELYRKQKKHLNSQQLTAFQLLFAWRDKTARREDESYGYVLPNHMMLKIAEELPKEPQGIIACCNPVPPLVRQQINEMHLLIQQAREMPLLKSENAAGVRKSGPLPSAERLENDLFGPHDCSHAPPDNYQNTSTDGTLPLQKQPSLFTEGKEETSVDAGCLLATAVITLFSEPNTEEGGKTPLTVAQKKAQNIMQSFENPFRMFLPSLEHKAHISQAAKFDPSSKIYEISNRWKLASQVQVQKEPKEATKKKVAEQTAAREEAKEEAAAGVLEQAIPVRQQAALENATKKRERATSDLRTIEQKQEKKRLKSSKKAKDPDPPGKDFSPYDYSQSDFRAFAGDSKSKPSSQFDPNKLAPSGKKGVGAKKCKQSVGNKSMSFAVGKSDRGFRHNWPKR | 21 | 40
